In patent US20120141463A1 (AstraZeneca / MedImmune, published 2012):
No end group written: not given here. Ahx = NCCCCCC(=O)O

Key:
[1] = molecular target: T1, peptide from phosphoinositide binding protein (human); experiment: peptide ELISA (Migis, cemx.migis, PIBP peptide); antibody concentration not shown
T1 construct: also called peptide (vi); PIBP peptide
T1 peptide: TQLLCVEAFEGEEPW-{Ahx-K(biotin)}

ε-migis peptide = molecular target: T2, ε-migis peptide (human); experiment: as above
T2 construct: also called peptide (i); human ε-migis
T2 peptide: ELDVCVEEAEGEAPW-{Ahx-K(biotin)}

cεmx.migis peptide [2] = molecular target: T3, cεmx.migis peptide (human, C-terminal -(Ahx)(K-Biot): aminohexanoic acid linker followed by a biotinylated lysine); experiment: inhibition phage ELISA: cεmx.migis peptide on Neutravidin plate, phage with irrelevant IgG control or A1c IgG, anti-M13-HRP
T3 construct: also called peptide (ii); cεmx.migs peptide
T3 peptide: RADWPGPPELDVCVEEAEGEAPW

mIgM on RPMI 1788 cells = molecular target: T4, mIgM on RPMI 1788 cells (human, UniProt P01871 1-474); experiment: FACS, primary antibody plus secondary (Gt α Mu or G α Hu); % cells staining and MF
T4 construct: whole, on cells; Endogenous immunoglobulin of the cell line; light chain not described; also called IgM (RPMI 1788 cells); membrane IgM
T4 sequence (P01871 whole entry): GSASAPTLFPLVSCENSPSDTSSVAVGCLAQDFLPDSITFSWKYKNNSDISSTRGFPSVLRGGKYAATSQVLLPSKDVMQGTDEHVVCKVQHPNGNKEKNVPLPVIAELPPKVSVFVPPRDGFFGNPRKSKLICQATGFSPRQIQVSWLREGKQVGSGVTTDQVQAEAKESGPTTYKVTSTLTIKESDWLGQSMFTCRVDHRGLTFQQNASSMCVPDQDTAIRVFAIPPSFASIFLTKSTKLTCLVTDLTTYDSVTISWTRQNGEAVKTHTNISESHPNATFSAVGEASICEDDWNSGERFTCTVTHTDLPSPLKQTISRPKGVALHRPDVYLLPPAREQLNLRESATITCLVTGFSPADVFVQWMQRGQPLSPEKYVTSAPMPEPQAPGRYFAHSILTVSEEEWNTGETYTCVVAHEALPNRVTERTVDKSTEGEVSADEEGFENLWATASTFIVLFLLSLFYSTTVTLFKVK

cεmx.migis peptide [3] = molecular target: T3, cεmx.migis peptide; experiment: inhibition phage ELISA: cεmx.migis peptide on Neutravidin plate, phage with control IgG, A1c or B1, anti-M13-HRP

Binder	binding result [1]	binding result (ε-migis peptide)	binding result (cεmx.migis peptide [2])	binding result (mIgM on RPMI 1788 cells)	binding result (cεmx.migis peptide [3])
A1c antibody (antibody, V domains shown, Human Fab phage clone converted to full IgG; also called anti ε-migis antibody A1c) VH: EVQLLESGGGLVQPGGSLRLSCAASGFTFSFYSMLWVRQAPGKGLEWVSYIGPSGGKTYYADSVKGRFTISRDNSKNTLYLQMNSLRAEDTAMYYCARRYCSGGSCYFDYWGQGTLVTVSS VL: DIQMTQSPSTLSASIGDRVTITCRASQSINSWLAWYQQKPGKGPDLLIYKASSLQSGVPSRFSGSGSGTEFTLTISSLQPDDFATYYCQQYSSWPLTFGGGTKVEIKR	binds	binds	binds		
D5 antibody (antibody, V domains shown, Fully human clone from the Dyax FAB-310 Fab phage library, converted to full length IgG (detected with an anti-human IgG1 Fc antibody); also called D5 IgG; clone D5) VH: EVQLLESGGGLVQPGGSLRLSCAASGFTFSKYHMVWVRQAPGKGLEWVSSIGPSGGNTYYADSVKGRFTISRDNSKNTLYLQMNSLRAEDTATYYCARALGATFDYWGQGTLVTVSS VL: DIQMTQSPLSLPVTLGQPASISCKSSQSLVYRDGITYLSWFQQRPGQSPRRLIYKVSNRDSGVPDRFSGSGSDSNFTLKISSVEAEDVGLYFCMQGSHWPFTFGPGTKVDIKR	no binding	no binding		no binding	binds
F4 antibody (antibody, V domains shown, Human Fab phage clone converted to full length IgG; also called clone F4) VH: EVQLLESGGGLVQPGGSLRLSCAASGFTFSNYGMFWVRQAPGKGLEWVSSIWPSGGNTMYADSVKGRFTISRDNSKNTLYLQMNSLRAEDTAVYYCARASYYGMDVWGQGTTVTVSS VL: DIQMTQSPSSLSASIGDRVTITCRGSQNIGRYLNWYQHKPGKAPDLLVYAASSLRSGVPSRFSGSGSGRDFTLTISSLQPGDFATYYCQQSYSAPFTFGAGTKVDVKR					binds
B1 antibody (antibody, V domains shown, Human Fab phage clone converted to full IgG; also called CP1-B1) VH: not shown VL: DIQMTQSPVSLPVTLGQPASISCRSSHSLVYSHGGTYLNWFQQRPGRSPRRLIYQVSNRDSGVPDRFSGSGSDTDFTLQISRVEADDIGIYYCMQSTYWPYAFGQGTKLDIKR	no binding	no binding			binds
